Numbering of substitutions follows the chain as printed.
B1: 10B8 VHH-Fc (Fc fusion)
chain: QVQLVESGGGLVQPGGSLRLSCAASGITLDYYAIAWFRQAPGKEREGVSCFCSSDGDIRYADSVKGRFTISRDNAKNTVYLQMNSLKPEDTAVYYCATERVYSSTWFFHRYSELDFGSWGRGTQVTVSS
B2: 9B2 VHH-Fc (Fc fusion)
chain: QVQLVESGGGLVQPGGSLRLSCAASGFTLDNYAIGWFRQAPGKEREGVSCISSSDGDTQYADSVKGRFTISRDNAKNTVYLQMNSLKPEDTAVYYCAVEKVYARSWFFHLCSELDFGSWGQGTQVTVSS
B3: 1A11 VHH-Fc (Fc fusion)
chain: QVQLVESGGGLVQAGGSLRLSCEVSGSIYSINSMGWYRQAPGKQRELVAGIVSDGRINYADSVKGRFTISRAKNTVYLQMNSLKPEDTAVYYCAADRAFVYAGDYDYLGQGTQVTVSS
B4: 7A9 VHH-Fc (Fc fusion)
chain: QVQLVESGGGLVQAGGSLRLSCSASGGTASRSAMGWFRQAPGKEREFVAGISRRNSGSTYVADSYEDSVKGRFTISRDNAKNTIYLQMNSLKPEDTAVYYCAAEPTLGWYVPRRSVEYEYWGQGTQVTVSS
B5: 19B8 VHH-Fc (Fc fusion)
chain: QVQLVESGGGLVQAGGSLRLSCAASGRTFTNYAMGWFRQAPGKEREFVAAISWSGGGTNYADSVKGRFTISRDNAKNTVYLQMNSPKPEDTAVYYCATTLGYYGSSSRLYEYWGQGTQVTVSS
B6: 3D4 VHH-Fc (Fc fusion)
chain: QVQLVESGGGLVQPGGSLRLSCAASGFTLDLNSIGWFRQAPGKEREGVSCISPSGSRMHYADSVKGRFTISRDNAKNTVYLQMNSLKPEDTAVYYCATGSPSYHYCSMYGLEYDSWGQGTQVTVPS
B7: 19C10 VHH-Fc (Fc fusion)
chain: B6 chain with G55A, R57S, M58T, S100T, S115D, P125S
B8: 19E10 VHH-Fc (Fc fusion)
chain: QVQLVESGGGLVQPGGSLRLSCVASGSTISINSMGWYRQAPGKAREMVATITNDGPIKYADPVKGRFTISRDNPKNTVYLQMNSLKPEDTAVYYCVADRAYWLAGEWEYWGQGTQVTVSS
B9: 8E9 VHH-Fc (Fc fusion)
chain: QVQLVESGGGLVEAGGSLRLSCVASGSSSSINAMGWYRQAPGKQRELVASISHDGETKYANSVKGRFTISRGNAKNTIYLQMNSLKPEDTAVYYCVGDVAWVVVAGEYDYWGQGTQVTVSS
B10: 5D7 VHH-Fc (Fc fusion)
chain: QVQLVESGGGLVQAGGSLRLSCAASGRTGSRYIMGWFRQAPGKEREFVAAINWRGDSTYYADSVKGRFTIARDNAKNTAYLQMNSLKPEDTAVYYCVADRGESYYYTRSTEYTYWGQGTQVTVSS
B11: 15H1 VHH-Fc (Fc fusion)
chain: QVQLVESGGGLAQAGGSLRLSCASSGLIFSGSAMGWFRQAPGKEREFVGVISWNGRTTYADSVKGRFTISRDDAVNMVWLQMNNLKPEDTAVYYCAADHLNYGSGDVNPRTYDYWGQGTQVTVSS
B12: 13C8 VHH-Fc (Fc fusion)
chain: QVQLVESGGGLVQAGGSLRLSCAASGRTVNKYMTGWFRQTPGKEREFVASIDWSSTTTHYANSVKGRFTISRDKVKNTVYLQMNGLKPEDTAVYYCAAHQDSSYGYTILPIDYDSWGQGTQVTVSS
B13: 5A6 VHH-Fc (Fc fusion)
chain: QVQLVESGGGLAQAGGSLRLSCATSGLTFSMSAMGWFRQAPGNEREFVGVINWNGGSSRYADSVRGRFTISRDNAKNTVYLQMNSLKPEDTGVYYCAADALNIGTGEVNPRLYDYWGQGTQVMVSS
B14: 1E4 VHH-Fc (Fc fusion)
chain: QVLLVESGGGLVQAGGLLRLACSASGRTFTENVMGWFRQAPGKEREFVAAINWNTGSTYYSDSRKGRFTISKDNAKNTMFLQINNLKPEDTAVYYCGGTSSSYYYIGEFIPDYWGQGTQVTVSS
B15: 11F8 VHH-Fc (Fc fusion)
chain: QVQLVESGGGLVQAGGSLRLSCAASGRTVGYYAVGWFRQAPGKERDFVAAISWSGRNTNYADSVTGRFTIFRDNAKNTVDLQMNSLKPEDTAVYYCAADYWNYGSGSEVPNNYDTWGQGTQVTVSS
B16: 15H7 VHH-Fc (Fc fusion)
chain: QVQLVESGGRLVQAGGSLRLSCAAPGRTFRNLTLGWFRQAPGKEREFVASTSWPDDEMTYYTDSVKGRFTISRDNAKNTVYLQMNSLKPEDTAVYYCAAASWSGRSTLSYDYDYWGQGTQVTVST

Target: SARS-CoV-2 WT spike on rVSV-deltaG-Luc pseudovirus (SARS-CoV-2), P0DTC2
Assay: cell-based or functional assay

Binder	pseudovirus neutralization IC50 [nM]
B1	0.68
B2	1.93
B3	0.57
B4	110
B5	53.5
B6	1.22
B7	1.49
B8	1.53
B9	12.4
B10	6.52
B11	5.04
B12	6.69
B13	8.57
B14	0.31
B15	1.07
B16	1.33
